Reference: article PMC9142594

Experiments:
Experiment in all cases: SPR; Biacore T200; His-tagged histones immobilised on sensor chip NTA; AGEs at 6.25, 12.5, 25, 50 and 100 µg/ml, single-cycle kinetics; 10 mM HEPES, 150 mM NaCl, 0.05% Tween-20; 25 °C; 30 µl/min
[1] = biological target: His-tagged human histone H3 (human) (UniProt P68431)
[2] = biological target: His-tagged human histone H2A (human) (UniProt P04908)
[3] = biological target: His-tagged human histone H2B (human) (UniProt P06899)

Substance “advanced glycation end products (AGEs): bovine serum albumin modified with dehydroascorbic acid (DHA) (from UniProt P02769 25-607) (ligand)” has a Kd [1] of 0.0965 µM, a Kd [2] of 0.0855 µM and a Kd [3] of 0.0672 µM.
